# T1: APKRGSILSKP (SEQ ID NO: 35)
# T1 chain: APKRGSILSKP
# T2: Peptide 1 (FARKGSLRQ), substrate, pseudo-substrate PKC alpha
# T2 chain: FARKGSLRQ
# T3: LSRTLSVAAKK (SEQ ID NO: 19)
# T3 chain: LSRTLSVAAKK
# T4: KTRRLSAFQQG (SEQ ID NO: 28)
# T4 chain: KTRRLSAFQQG
# T5: PKRPGSVHRTP (SEQ ID NO: 23)
# T5 chain: PKRPGSVHRTP
# T6: NKRRGSVPILR (SEQ ID NO: 57)
# T6 chain: NKRRGSVPILR
# T7: RVVGGSLRGAQ (SEQ ID NO: 50)
# T7 chain: RVVGGSLRGAQ
# T8: RGRSRSAPPNL (SEQ ID NO: 29)
# T8 chain: RGRSRSAPPNL
# T9: GTFRSSIRRLS (SEQ ID NO: 49)
# T9 chain: GTFRSSIRRLS
# T10: ALGKRTAKYRW (SEQ ID NO: 45)
# T10 chain: ALGKRTAKYRW
# T11: VAKRESRGLKS (SEQ ID NO: 21)
# T11 chain: VAKRESRGLKS
# T12: QKKRVSMILQS (SEQ ID NO: 59)
# T12 chain: QKKRVSMILQS
# T13: KAFRDTFRLLL (SEQ ID NO: 22)
# T13 chain: KAFRDTFRLLL
# T14: NSRRPSRATWL (SEQ ID NO: 55)
# T14 chain: NSRRPSRATWL
# T15: IYRASYYRKGG (SEQ ID NO: 27)
# T15 chain: IYRASYYRKGG
# T16: KPFKLSGLSFK (SEQ ID NO: 43)
# T16 chain: KPFKLSGLSFK
# T17: KFRTPSFLKKS (SEQ ID NO: 26)
# T17 chain: KFRTPSFLKKS
# T18: QAWSKTTPRRI (SEQ ID NO: 31)
# T18 chain: QAWSKTTPRRI
# T19: VVRTDSLKGRR (SEQ ID NO: 46)
# T19 chain: VVRTDSLKGRR
# T20: … (SEQ ID NO: 16)
# T20 chain: KKRFSFKKSFK
# T21: QKRPSQRSKYL (SEQ ID NO: 17)
# T21 chain: QKRPSQRSKYL
# T22: DIKRLTPRFTL (SEQ ID NO: 34)
# T22 chain: DIKRLTPRFTL
# T23: AFRRTSLAGGG (SEQ ID NO: 44)
# T23 chain: AFRRTSLAGGG
# T24: GKRRPSRLVAL (SEQ ID NO: 58)
# T24 chain: GKRRPSRLVAL
# Experiments:
# [1] = target: T1, APKRGSILSKP (SEQ ID NO: 35)
# [2] = target: T2, Peptide 1 (FARKGSLRQ), substrate, …
# [3] = target: T3, LSRTLSVAAKK (SEQ ID NO: 19)
# [4] = target: T4, KTRRLSAFQQG (SEQ ID NO: 28)
# [5] = target: T5, PKRPGSVHRTP (SEQ ID NO: 23)
# [6] = target: T6, NKRRGSVPILR (SEQ ID NO: 57)
# [7] = target: T7, RVVGGSLRGAQ (SEQ ID NO: 50)
# [8] = target: T8, RGRSRSAPPNL (SEQ ID NO: 29)
# [9] = target: T9, GTFRSSIRRLS (SEQ ID NO: 49)
# [10] = target: T10, ALGKRTAKYRW (SEQ ID NO: 45)
# [11] = target: T11, VAKRESRGLKS (SEQ ID NO: 21)
# [12] = target: T12, QKKRVSMILQS (SEQ ID NO: 59)
# [13] = target: T13, KAFRDTFRLLL (SEQ ID NO: 22)
# [14] = target: T14, NSRRPSRATWL (SEQ ID NO: 55)
# [15] = target: T15, IYRASYYRKGG (SEQ ID NO: 27)
# [16] = target: T16, KPFKLSGLSFK (SEQ ID NO: 43)
# [17] = target: T17, KFRTPSFLKKS (SEQ ID NO: 26)
# [18] = target: T18, QAWSKTTPRRI (SEQ ID NO: 31)
# [19] = target: T19, VVRTDSLKGRR (SEQ ID NO: 46)
# … (SEQ ID NO: 16) = target: T20, … (SEQ ID NO: 16)
# [20] = target: T21, QKRPSQRSKYL (SEQ ID NO: 17)
# [21] = target: T22, DIKRLTPRFTL (SEQ ID NO: 34)
# [22] = target: T23, AFRRTSLAGGG (SEQ ID NO: 44)
# [23] = target: T24, GKRRPSRLVAL (SEQ ID NO: 58)
protein,measurement,setting,value
"PKC-θ kinase domain (PKC-θ KD; amino acid residues 362 to 706), C-terminal hexa-histidine tag, expressed in E. coli (protein) MGPELNKERPSLQIKLKIEDFILHKMLGKGSFGKVFLAEFKKTNQFFAIKALKKDVVLMDDDVECTMVEKRVLSLAWEHPFLTHMFCTFQTKENLFFVMEYLNGGDLMYHIQSCHKFDLSRATFYAAEIILGLQFLHSKGIVYRDLKLDNILLDKDGHIKIADFGMCKENMLGDAKTNTFCGTPDYIAPEILLGQKYNHSVDWWSFGVLLYEMLIGQSPFHGQDEEELFHSIRMDNPFYPRWLEKEAKDLLVKLFVREPEKRLGVRGDIRQHPLFREINWEELERKEIDPPFRPKVKSPFDCSNFDKEFLNEKPRLSFADRALINSMDQNMFRNFSFMNPGMERLISHHHHHH","phosphorylation of the peptide spot (32P, peptide array)",[1],shown to be substrates for PKC-θ
same,"(kcat/Km)^η, slope of the solvent microviscosity effect, 250 mM NaCl",[2],the slope had a (kcat/Km)^η value of 0.86 in 250 mM NaCl
same,kcat/Km,[2],2.7e+06 M⁻¹ s⁻¹
same,"phosphorylation of the peptide spot (32P, peptide array)",[3],shown to be substrates for PKC-θ
same,"phosphorylation of the peptide spot (32P, peptide array)",[4],shown to be substrates for PKC-θ
same,"phosphorylation of the peptide spot (32P, peptide array)",[5],shown to be substrates for PKC-θ
same,"phosphorylation of the peptide spot (32P, peptide array)",[6],shown to be substrates for PKC-θ
same,"phosphorylation of the peptide spot (32P, peptide array)",[7],shown to be substrates for PKC-θ
same,"phosphorylation of the peptide spot (32P, peptide array)",[8],shown to be substrates for PKC-θ
same,"phosphorylation of the peptide spot (32P, peptide array)",[9],shown to be substrates for PKC-θ
same,"phosphorylation of the peptide spot (32P, peptide array)",[10],shown to be substrates for PKC-θ
same,"phosphorylation of the peptide spot (32P, peptide array)",[11],shown to be substrates for PKC-θ
same,"phosphorylation of the peptide spot (32P, peptide array)",[12],shown to be substrates for PKC-θ
same,"phosphorylation of the peptide spot (32P, peptide array)",[13],shown to be substrates for PKC-θ
same,"phosphorylation of the peptide spot (32P, peptide array)",[14],shown to be substrates for PKC-θ
same,"phosphorylation of the peptide spot (32P, peptide array)",[15],shown to be substrates for PKC-θ
same,"phosphorylation of the peptide spot (32P, peptide array)",[16],shown to be substrates for PKC-θ
same,"phosphorylation of the peptide spot (32P, peptide array)",[17],shown to be substrates for PKC-θ
same,"phosphorylation of the peptide spot (32P, peptide array)",[18],shown to be substrates for PKC-θ
same,"phosphorylation of the peptide spot (32P, peptide array)",[19],shown to be substrates for PKC-θ
same,"phosphorylation of the peptide spot (32P, peptide array)",… (SEQ ID NO: 16),shown to be substrates for PKC-θ
same,"phosphorylation of the peptide spot (32P, peptide array)",[20],shown to be substrates for PKC-θ
same,"phosphorylation of the peptide spot (32P, peptide array)",[21],shown to be substrates for PKC-θ
same,"phosphorylation of the peptide spot (32P, peptide array)",[22],shown to be substrates for PKC-θ
same,"phosphorylation of the peptide spot (32P, peptide array)",[23],shown to be substrates for PKC-θ

# From patent US20050164323
